Two molecules from publication PMC4511006, “Peptide Inhibitor of Complement C1 (PIC1) Rapidly Inhibits Complement Activation after Intravascular Injection in Rats” (PLoS ONE, 2015) can be followed below.

Ends that are not written are not given here.

Common to all, as to conditions: both partners purified
Experiment [1] deals with T1, C1q (UniProt P02745 23-245; P02746 28-253; P02747 29-245).
T1 construct: also called purified C1q; intact C1q
In words: ELISA; AcPA adsorbed to the plate at 2.5 uM; purified C1q (1 ug) added in 50 mM HEPES pH 7.0 with various concentrations of NaCl, 1 h, room temperature; detected with goat anti-C1q.

Experiment [2] deals with Wild-type recombinant ficolin H (ficolin-3) (human, UniProt O75636 24-299). In words: ELISA; ficolins adsorbed at 10 ug/mL, C1q at 25 nM, BSA at 30 ug/mL; biotinylated PA added at various concentrations in blocking buffer with 0.4 M NaCl, 1 h, room temperature; neutravidin-HRP. (In general: In an ELISA, binding on a coated surface is turned into a signal by an enzyme label.)

Experiment [3] deals with Wild-type recombinant ficolin M (ficolin-1) (human, UniProt O00602 30-326). Described as above.
Experiment [4] deals with Wild-type recombinant ficolin L (ficolin-2) (human, UniProt Q15485 26-313). Described as above.
The target of experiment [5] is T1, C1q. In words: cross-linking; C1q and biotinylated PA at a ratio of 1:25 in 0.1 M Na2HPO4, 0.15 M NaCl, pH 8.0, room temperature 2.5 h, with or without 20 uM BS3; SDS-PAGE and blot with streptavidin and anti-C1q.

T1 sequence (P02745 23-245, chain 1 of 3): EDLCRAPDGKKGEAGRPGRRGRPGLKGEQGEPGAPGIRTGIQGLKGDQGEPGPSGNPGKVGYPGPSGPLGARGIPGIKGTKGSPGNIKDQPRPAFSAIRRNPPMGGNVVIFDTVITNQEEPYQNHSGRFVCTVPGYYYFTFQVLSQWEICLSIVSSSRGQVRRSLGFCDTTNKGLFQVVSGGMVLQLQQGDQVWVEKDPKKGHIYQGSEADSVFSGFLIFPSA
T1 sequence (P02746 28-253, chain 2 of 3): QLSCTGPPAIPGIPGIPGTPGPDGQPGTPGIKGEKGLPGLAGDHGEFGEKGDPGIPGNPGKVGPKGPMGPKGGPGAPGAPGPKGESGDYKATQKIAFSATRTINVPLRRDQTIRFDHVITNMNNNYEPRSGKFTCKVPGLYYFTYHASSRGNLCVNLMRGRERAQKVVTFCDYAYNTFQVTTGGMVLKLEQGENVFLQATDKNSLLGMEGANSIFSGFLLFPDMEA
T1 sequence (P02747 29-245, chain 3 of 3): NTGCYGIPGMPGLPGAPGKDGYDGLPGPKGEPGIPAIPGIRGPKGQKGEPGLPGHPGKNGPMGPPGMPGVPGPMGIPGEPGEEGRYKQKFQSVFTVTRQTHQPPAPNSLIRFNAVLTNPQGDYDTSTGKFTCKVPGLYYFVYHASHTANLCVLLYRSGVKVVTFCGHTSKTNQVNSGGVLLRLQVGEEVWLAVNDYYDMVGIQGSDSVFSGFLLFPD
Wild-type recombinant ficolin M (ficolin-1), sequence (O00602 30-326): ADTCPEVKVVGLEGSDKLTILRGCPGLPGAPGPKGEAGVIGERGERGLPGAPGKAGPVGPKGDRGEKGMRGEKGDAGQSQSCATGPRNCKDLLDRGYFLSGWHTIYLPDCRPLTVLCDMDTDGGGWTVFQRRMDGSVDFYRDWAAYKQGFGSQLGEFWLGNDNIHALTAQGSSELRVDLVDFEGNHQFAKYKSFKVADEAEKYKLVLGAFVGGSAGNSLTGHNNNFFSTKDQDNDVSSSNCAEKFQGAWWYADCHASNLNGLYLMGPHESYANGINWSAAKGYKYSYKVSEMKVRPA
Wild-type recombinant ficolin L (ficolin-2), sequence (Q15485 26-313): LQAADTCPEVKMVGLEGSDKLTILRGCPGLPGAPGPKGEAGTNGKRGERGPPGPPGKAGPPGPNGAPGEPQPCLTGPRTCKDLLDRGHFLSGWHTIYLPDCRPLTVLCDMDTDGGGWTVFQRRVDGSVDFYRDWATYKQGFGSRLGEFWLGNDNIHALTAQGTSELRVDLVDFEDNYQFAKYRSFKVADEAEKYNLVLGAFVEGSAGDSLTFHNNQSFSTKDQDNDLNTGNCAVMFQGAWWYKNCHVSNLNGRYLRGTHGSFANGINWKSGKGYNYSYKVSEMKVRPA
Wild-type recombinant ficolin H (ficolin-3), sequence (O75636 24-299): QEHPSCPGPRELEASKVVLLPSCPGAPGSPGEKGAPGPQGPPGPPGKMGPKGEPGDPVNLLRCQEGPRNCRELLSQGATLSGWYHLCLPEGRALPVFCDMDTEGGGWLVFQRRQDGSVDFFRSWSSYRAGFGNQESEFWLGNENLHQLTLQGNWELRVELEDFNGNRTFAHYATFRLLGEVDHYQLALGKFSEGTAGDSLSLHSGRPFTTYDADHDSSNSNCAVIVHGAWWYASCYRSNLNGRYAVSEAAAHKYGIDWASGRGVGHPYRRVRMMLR

B1: Acetylated PA (AcPA) (peptide)
peptide: IALILEPICCQERAA
modifications: cysteine pairing not given here; also: acetylated, position not given here
notes: Polar Assortant (PA), 15 amino-acid derivative obtained by extensive modification of a 15-residue peptide of the human astrovirus type 1 coat protein; also called acetylated Polar Assortant peptide; PIC1; source: synthetic peptide, bought: New England Peptide (>=90% purity)
Turning to B1, the binding result in experiment [1] is reported as “binds”.

B2: C-terminally biotinylated PA peptide (peptide)
peptide: IALILEPICCQERAA-biotin
modifications: cysteine pairing not given here
notes: Polar Assortant (PA), 15 amino-acid derivative of a human astrovirus type 1 coat protein peptide; Detected by its biotin (streptavidin IR 680 or neutravidin-HRP); source: synthetic peptide, bought: New England Peptide (>=90% purity)
Turning to B2, the binding result in experiment [2], in experiment [3], in experiment [4] and in experiment [5] was “binds” throughout.
